Experimental data: US7745574B2, “Compounds that regulate apoptosis” (The Burnham Institute, priority 2005, dated 2010)
Entries after “also recorded” stand apart in the source; their conditions may differ. Where no end group is shown, it is not given here. [ ]: non-standard residue; d: D form. Ahx = NCCCCCC(=O)O

Assays:
Bcl-2 [1] = target: T1, Bcl-2 (Homo sapiens, UniProt P10415); experiment: Bcl-2 conformational change, anti-Bcl-2/BH3 antibody staining of HEK293T cells transfected with Bcl-2; format: cell-based; parameters: expressed in transfected cells; host or cells: HEK293T
Experimental: Such a Bcl-2 conformation is recognized by an anti-Bcl-2 antibody raised against the Bcl-2 BH3 domain. To determine whether NuBCP-9 induced a Bcl-2 conformational change, flow cytometric assays were conducted which HEK293T cells transfected with Bcl-2 were exposed to NuBCPs and subsequently stained with the anti-Bcl-2/BH3 antibody.
Target sequence in this assay (P10415 whole entry, the tested form may be a part): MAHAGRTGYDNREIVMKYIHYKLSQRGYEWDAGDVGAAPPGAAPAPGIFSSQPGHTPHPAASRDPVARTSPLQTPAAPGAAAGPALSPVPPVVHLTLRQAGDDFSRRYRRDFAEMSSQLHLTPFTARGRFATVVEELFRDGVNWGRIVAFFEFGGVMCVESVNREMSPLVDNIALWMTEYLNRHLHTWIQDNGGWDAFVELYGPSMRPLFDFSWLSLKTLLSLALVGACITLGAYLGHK

Bcl-2 [2] = target: T1, Bcl-2; experiment: Immunoprecipitation of endogenous Bcl-2 by anti-Bcl-2/BH3 antibody in treated cells; format: cell-based; parameters: precipitated endogenous Bcl-2 in cells treated with L-NuBCP-9-r8 or D-NuBCP-9-r8; endogenous in cells
Target sequence in this assay (P10415 whole entry, species assumed, the tested form may be a part): as the sequence (P10415 whole entry, the tested form may be a part) above

Bcl-2 [3] = target: T1, Bcl-2; experiment: Competition assay of Nur77/ΔDBD binding with Bcl-2; parameters: expressed in transfected cells; host or cells: HEK293T
Experimental: (§1) Nur77/Bcl-2 interaction assays—Reporter gene assays using NurRE-tk-CAT in CV-1 cells, and GST pull-down assay were described previously (Li, et al. 2000 Science 289:1159-1164). For the mammalian two-hybrid assays, CV-1 cells were co-transfected with pcDNA-Gal4TAD-Nur77 or pcDNA-Gal4TAD-Nur77/ΔDBD and pcDNA-Gal4 DBD-Bcl-2/ΔTM along with a luciferase reporter gene driven by four copies of the Gal-4-binding site. The cells were harvested and reporter gene activity was measured. For Co-IP assays, HEK293T cells were transiently transfected with various expression plasmids using a modified calcium phosphate precipitation method (Wu et al, 1997) in the presence of caspase inhibitors (zVAD-fmk) to prevent degradation of Nur77 protein due to apoptosis. Cells were suspended in lysis buffer (50 mM Tris-HCl, PH7.4; 150 mM NaCl; 20 mM EDTA; 1% NP-40; 1 mM PMSF; 50 μg/ml Leupeptin; […] Aprotinin; 0.1 mM Na3VO4; and 1 mM DTT). Cells extracts were cleared by incubation with the Protein A/G plus Agarose beads (Santa Cruz) and then incubated with appropriate antibody and 30 μl of Protein A or G plus Agarose beads overnight at 4° C. […] Immunoreactive products were detected by chemiluminescence with an enhanced chemiluminescence system (ECL) (Amersham).
Target sequence in this assay (P10415 whole entry, the tested form may be a part): as above

H460 lung cancer cells [4] = experiment: Apoptosis in H460 lung cancer cells; format: cell-based; conditions: H460 cells; peptides conjugated with CPP, 10 μM
[5] = test system: MDA-MB435 breast carcinoma cells; experiment: MDA-MB435 tumors in SCID mice; format: in vivo
Experimental: Animal studies. Female SCID mice (6-week-old) (Tacomic) were injected with 10^6 MDA-MB435 breast carcinoma cells. Tumors were palpable on day 7. On days 10 and 13, test peptides (620 μg in 50 μL PBS) were injected into the tumor areas of 5 mice. Tumor volumes (1×w^2) were determined using calipers. No weight changes were observed. Established tumors in control mice were injected with test peptides and tumor tissues were excised and sectioned after 3 days. Tissues were fixed (10% buffered formalin), then rapidly paraffin-embedded. Apoptosis was detected by the TUNEL assay.

H460 lung cancer cells [6] = experiment: Apoptosis in H460 lung cancer cells; format: cell-based
Experimental: Bcl-2 siRNAs and antisense oligonucleotides-The target siRNA SMARTpools for Bcl-2 and Bak and the siRNA oligonucleotide for Nur77 (5'-[…] NO: 67) were purchased from Dharmacon Research Inc. Target or control siRNA were transfected at a final concentration of 200 nM into cells at 40% confluency using Oligofectamine reagent (Invitrogen) according to the manufacturer's recommendations. After 48 h, cells were analyzed. Bcl-2 antisense oligonucleotide targeting Bcl-2 and negative control oligonucleotides were obtained from Calbiochem. […] The percentages of apoptotic cells were determined by counting 300 GFP-positive cells, scoring cells having nuclear fragmentation and/or chromatin condensation. Cell culture. […] HEK293T embryonic kidney cells were grown in DME medium supplemented with 10% FBS. Jurkat and Jurkat cells stably expressing Bcl-2 were kindly provided by Dr. John Reed, and they were maintained in RPMI1640 medium.

GST-Bcl-2 = target: T2, GST-Bcl-2 (Homo sapiens, UniProt P10415); experiment: Immunoprecipitation of purified GST-Bcl-2 by anti-Bcl-2/BH3 antibody; format: biochemical
T2 construct: made in house
T2 sequence (P10415 whole entry): as the sequence (P10415 whole entry, the tested form may be a part) above

mitochondria = experiment: Subcellular localization, colocalization with RFP-Mito; format: cell-based
Experimental: Subcellular localization assays—Cells were seeded onto cover-slips in 6-well plates overnight, then transiently transfected with GFP-fusion expression plasmids. After 16 hours, cells were washed with PBS and fixed in 4% paraformaldehyde. […] For cyt c staining, cells were incubated with monoclonal anti-cyt c IgG (PharMingen), followed by anti-mouse IgG conjugated with Cy5 (Amersham). Fluorescent images were collected and analyzed using a MRC-1024 MP laser-scanning confocal microscope (Bio-Rad). Subcellular fractionation assays were performed as described (Li, et al. 2000 Science 289:1159-1164). Briefly, cells (1×10^7 cells) suspended in 0.5 ml hypotonic buffer (5 mM Tris-HCl, pH 7.4, 5 mM KCl, 1.5 mM MgCl2, 0.1 mM EGTA, pH 8.0, and 1 mM DTT) were homogenized and cell extracts were centrifuged at 500×g for 5 min. The resulting supernatant was centrifuged at 10,000×g for 30 min at 4° C. to obtain the HM fraction. HM fraction was resuspended in 100 μl lysis buffer (10 mM Tris, pH 7.4, 150 mM NaCl, 1% Triton X-100, 5 mM EDTA, pH 8.0) for immunoblotting analysis.

Bcl-B = target: T3, Bcl-B (Homo sapiens, UniProt Q9HD36); experiment: Co-immunoprecipitation with myc-tagged Bcl-B in HEK293T cells; format: binding
T3 construct: expressed in transfected cells; host or cells: HEK293T
T3 sequence (Q9HD36 1-204): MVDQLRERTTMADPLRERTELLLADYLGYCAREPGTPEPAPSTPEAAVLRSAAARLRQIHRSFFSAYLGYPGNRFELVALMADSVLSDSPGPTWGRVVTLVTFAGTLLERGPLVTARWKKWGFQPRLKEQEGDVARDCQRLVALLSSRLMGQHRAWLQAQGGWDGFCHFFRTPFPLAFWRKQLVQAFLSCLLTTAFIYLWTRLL
Experimental: (§2) Nur77 peptide binds anti-apoptotic Bcl-2 family members. Nur77-peptide binds Bcl-B, Bfl-1, and Bcl-2, but not Mcl-1 and Bcl-xL. […] The expression vector for the GFP-Nur77/489-497 fusion was transfected into HEK293T cells together with or without the indicated expression vector for myc-tagged Bcl-2 family member. Cell lysates were prepared and analyzed for interaction of Nur77/489-497 with Bcl-2 family members by co-immunoprecipitation assay using anti-Myc antibody. Immunoprecipitates were then separated on SDS/PAGE and immunoblotted using anti-GFP antibody. […] Nur77/Bcl-2 interaction assays—Reporter gene assays using NurRE-tk-CAT in CV-1 cells, and GST pull-down assay were described previously (Li, et al. 2000 Science 289:1159-1164). For the mammalian two-hybrid assays, CV-1 cells were co-transfected with pcDNA-Gal4TAD-Nur77 or pcDNA-Gal4TAD-Nur77/ΔDBD and pcDNA-Gal4 DBD-Bcl-2/ΔTM along with a luciferase reporter gene driven by four copies of the Gal-4-binding site. The cells were harvested and reporter gene activity was measured. […] Immunoreactive products were detected by chemiluminescence with an enhanced chemiluminescence system (ECL) (Amersham).

Bfl-1 = target: T4, Bfl-1 (Homo sapiens, UniProt Q16548); experiment: Co-immunoprecipitation with myc-tagged Bfl-1 in HEK293T cells; format: binding
T4 construct: expressed in transfected cells; host or cells: HEK293T
T4 sequence (Q16548 1-175): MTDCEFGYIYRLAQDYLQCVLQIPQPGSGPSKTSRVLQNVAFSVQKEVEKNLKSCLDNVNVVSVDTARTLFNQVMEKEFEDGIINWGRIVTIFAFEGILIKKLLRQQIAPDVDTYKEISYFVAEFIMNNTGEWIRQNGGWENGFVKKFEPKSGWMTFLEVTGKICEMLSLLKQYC
Experimental: as §2

[7] = Induction of apoptosis by Nur77 peptides, cell line not stated; format: cell-based
Experimental: Apoptosis assays—For nuclear morphological change analysis, cells were trypsinized, washed with PBS, fixed with 3.7% paraformaldehyde, and stained with DAPI (4,6-diamidino-2-phenylindole) (50 μg/ml) to visualize the nuclei by UV-microscopy. The percentages of apoptotic cells were determined by counting 300 GFP-positive cells, scoring cells having nuclear fragmentation and/or chromatin condensation.

Bcl-2 [8] = target: T1, Bcl-2; experiment: Co-immunoprecipitation with Bcl-2 in HEK293T cells; format: binding; parameters: expressed in transfected cells; host or cells: HEK293T
Experimental: as §1, with “Nur77 peptide binds anti-apoptotic Bcl-2 family members. Nur77-peptide binds Bcl-B, Bfl-1, and Bcl-2, but not Mcl-1 and Bcl-xL. […] The expression vector for the GFP-Nur77/489-497 fusion was transfected into HEK293T cells together with or without the indicated expression vector for myc-tagged Bcl-2 family member. Cell lysates were prepared and analyzed for interaction of Nur77/489-497 with Bcl-2 family members by co-immunoprecipitation assay using anti-Myc antibody. Immunoprecipitates were then separated on SDS/PAGE and immunoblotted using anti-GFP antibody. […] Nur77/Bcl-2” for “Nur77/Bcl-2”
Target sequence in this assay (P10415 whole entry, the tested form may be a part): as the sequence (P10415 whole entry, the tested form may be a part) above

Mcl-1 = Mcl-1 (Homo sapiens, UniProt Q07820); experiment: Co-immunoprecipitation with myc-tagged Mcl-1 in HEK293T cells; format: binding
Mcl-1, sequence (Q07820 whole entry, species assumed): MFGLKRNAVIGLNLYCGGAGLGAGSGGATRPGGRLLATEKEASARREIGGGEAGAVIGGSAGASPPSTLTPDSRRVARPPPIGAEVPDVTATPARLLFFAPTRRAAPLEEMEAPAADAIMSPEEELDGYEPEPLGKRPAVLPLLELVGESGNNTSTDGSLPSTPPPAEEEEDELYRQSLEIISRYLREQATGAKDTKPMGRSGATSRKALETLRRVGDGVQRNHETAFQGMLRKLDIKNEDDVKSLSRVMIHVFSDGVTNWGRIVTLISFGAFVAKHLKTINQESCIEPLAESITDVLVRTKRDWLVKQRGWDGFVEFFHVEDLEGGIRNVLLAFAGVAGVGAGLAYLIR
Experimental: as §2

Bcl-XL = Bcl-XL (Homo sapiens, UniProt Q07817); experiment: Co-immunoprecipitation with myc-tagged Bcl-XL in HEK293T cells; format: binding
Bcl-XL, sequence (Q07817 whole entry, species assumed): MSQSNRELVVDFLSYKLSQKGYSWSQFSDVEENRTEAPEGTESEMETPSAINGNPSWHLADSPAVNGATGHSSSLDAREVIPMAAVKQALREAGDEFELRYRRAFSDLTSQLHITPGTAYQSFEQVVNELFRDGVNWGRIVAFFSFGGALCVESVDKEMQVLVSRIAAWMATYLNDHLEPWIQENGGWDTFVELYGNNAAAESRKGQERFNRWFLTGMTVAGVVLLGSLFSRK
Experimental: as §2

Bcl-2 immunofluorescence by anti-Bcl-2/BH3 antibody (Bcl-2 [1]; flow cytometry) | Bcl-2 staining by anti-Bcl-2/BH3 antibody (Bcl-2 [1]; fluorescence microscopy) | Bcl-2 immunofluorescence in the presence of caspase inhibitor zVAD (Bcl-2 [1]; zVAD present) | precipitation of endogenous Bcl-2 by anti-Bcl-2/BH3 antibody (Bcl-2 [2]) | binding of Nur77/ΔDBD with Bcl-2 in presence of peptide (Bcl-2 [3]) | precipitation of GST-Bcl-2 protein by anti-Bcl-2/BH3 antibody (GST-Bcl-2) | interaction with Bcl-B by co-immunoprecipitation (Bcl-B) | interaction with Bfl-1 by co-immunoprecipitation (Bfl-1) | interaction with Mcl-1 by co-immunoprecipitation (Mcl-1) | interaction with Bcl-XL by co-immunoprecipitation (Bcl-XL) | Substance | apoptotic effect (H460 lung cancer cells [4]) | growth of tumors ([5]; SCID mice, 620 μg injected into tumor areas on days 10 and 13, vs control NuBCP-9/AA-r8) | apoptosis of tumor cells in vivo ([5]; TUNEL assay) | apoptotic function after Bcl-2 antisense oligonucleotides (H460 lung cancer cells [6]; Bcl-2 antisense oligonucleotides) | apoptotic effect after transfection of Bcl-2 siRNA (H460 lung cancer cells [6]; H460 cells, Bcl-2 siRNA vs control GFP siRNA) | colocalization with RFP-Mito (mitochondria) | induction of apoptosis [7] | interaction with Bcl-2 by co-immunoprecipitation (Bcl-2 [8])
strong Bcl-2 immunofluorescence | strongly stained | observed | precipitated | abrogated | strong precipitation | – | – | – | – | acetyl------------FSRSLHSLLGXrrrrrrrr-amide (Ac-FSRSLHSLLG[Ahx][dR][dR][dR][dR][dR][dR][dR][dR]-NH2; SMILES CC(=O)N[C@@H](Cc1ccccc1)C(=O)N[C@@H](CO)C(=O)N[C@@H](CCCNC(=N)N)C(=O)N[C@@H](CO)C(=O)N[C@@H](CC(C)C)C(=O)N[C@@H](Cc1c[nH]cn1)C(=O)N[C@@H](CO)C(=O)N[C@@H](CC(C)C)C(=O)N[C@@H](CC(C)C)C(=O)NCC(=O)NCCCCCC(=O)N[C@H](CCCNC(=N)N)C(=O)N[C@H](CCCNC(=N)N)C(=O)N[C@H](CCCNC(=N)N)C(=O)N[C@H](CCCNC(=N)N)C(=O)N[C@H](CCCNC(=N)N)C(=O)N[C@H](CCCNC(=N)N)C(=O)N[C@H](CCCNC(=N)N)C(=O)N[C@H](CCCNC(=N)N)C(N)=O) [NuBCP-9-r8] | potently induce apoptosis | dramatically suppressed | potently induced | attenuated | inhibited | – | – | –
– | – | – | – | – | – | interacts | interacts | not | not | GFP-Nur77/489-497: NuBCP-9 (Nur77/489-497) sequence cloned as a green fluorescence protein (GFP) fusion (FSRSLHSLL; also: fused to GFP) | – | – | – | – | – | colocalized extensively | apoptotic | precipitated by anti-Bcl-2 antibody only when Bcl-2 was co-expressed; also recorded: interacts
